Assay results reported in paper PMC2567903.

Columns and labels:
[1] = molecular target: EspFU R′1-5 (UniProt P0DJ88); assay: ITC
[2] = molecular target: EspFU R′5 (UniProt P0DJ88); assay: ITC
[3] = molecular target: EspFU R′4-5 (UniProt P0DJ88); assay: ITC
[4] = molecular target: N-WASPC in complex with Alexa647-labeled EspFU R′5 (UniProt O08816); assay: SEC
N-WASPC in complex with Alexa647-labeled EspFU R′5, sequence (O08816 193-501, chain 1 of 2): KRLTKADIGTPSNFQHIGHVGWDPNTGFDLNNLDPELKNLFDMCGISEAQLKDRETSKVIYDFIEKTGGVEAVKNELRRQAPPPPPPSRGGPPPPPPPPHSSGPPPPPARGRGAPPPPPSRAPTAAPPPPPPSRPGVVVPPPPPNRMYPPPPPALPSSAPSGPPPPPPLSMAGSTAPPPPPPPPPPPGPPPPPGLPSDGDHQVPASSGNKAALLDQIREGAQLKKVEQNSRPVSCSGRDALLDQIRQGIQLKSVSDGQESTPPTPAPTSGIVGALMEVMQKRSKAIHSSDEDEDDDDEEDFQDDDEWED
N-WASPC in complex with Alexa647-labeled EspFU R′5, sequence (P0DJ88 221-267, chain 2 of 2, further chain): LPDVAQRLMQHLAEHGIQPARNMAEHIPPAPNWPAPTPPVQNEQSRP

WASP GBD (residues 242–310), sequence (P42768 242-310): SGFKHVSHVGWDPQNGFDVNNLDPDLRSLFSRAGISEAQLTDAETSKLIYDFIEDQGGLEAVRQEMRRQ
EspFU R′1-5, sequence (P0DJ88 80-314): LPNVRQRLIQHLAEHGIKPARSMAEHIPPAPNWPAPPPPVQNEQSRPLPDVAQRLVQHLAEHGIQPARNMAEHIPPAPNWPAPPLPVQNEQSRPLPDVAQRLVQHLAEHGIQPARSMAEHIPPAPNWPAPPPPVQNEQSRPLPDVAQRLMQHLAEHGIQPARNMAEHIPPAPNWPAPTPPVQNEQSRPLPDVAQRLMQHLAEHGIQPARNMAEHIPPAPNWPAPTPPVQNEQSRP
EspFU R′4-5, sequence (P0DJ88 221-314): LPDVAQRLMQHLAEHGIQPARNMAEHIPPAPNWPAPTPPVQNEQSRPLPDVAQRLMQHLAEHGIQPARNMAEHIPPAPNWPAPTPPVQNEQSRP
EspFU R′5, sequence (P0DJ88 221-267): as the sequence (P0DJ88 221-267, chain 2 of 2, further chain) above

Substance	Kd [1]	stoichiometry N [1]	Kd [2]	stoichiometry N [2]	Kd [3]	stoichiometry N [3]	percent of the EspFU shifted into the EspFU-N-WASP-Arp2/3 complex [4]
WASP GBD (residues 242–310) (from UniProt P42768 242-310) (domain or fragment)	83 nM	5.7	89 nM	1	95 nM	1.8	–
Arp2/3 complex	–	–	–	–	–	–	60%
